Measured values as given in patent publication US20090252748A1 (Biogen, published 2009).

T1: Sp35-Fc fusion protein (human Sp35 residues 1-532 fused to hinge and Fc of human IgG1) (human, UniProt Q96FE5 40-538)
T1 construct: also called LINGO-1-Ig; LINGO-1-Fc; not shown: hinge and Fc region of human IgG1
T1 sequence: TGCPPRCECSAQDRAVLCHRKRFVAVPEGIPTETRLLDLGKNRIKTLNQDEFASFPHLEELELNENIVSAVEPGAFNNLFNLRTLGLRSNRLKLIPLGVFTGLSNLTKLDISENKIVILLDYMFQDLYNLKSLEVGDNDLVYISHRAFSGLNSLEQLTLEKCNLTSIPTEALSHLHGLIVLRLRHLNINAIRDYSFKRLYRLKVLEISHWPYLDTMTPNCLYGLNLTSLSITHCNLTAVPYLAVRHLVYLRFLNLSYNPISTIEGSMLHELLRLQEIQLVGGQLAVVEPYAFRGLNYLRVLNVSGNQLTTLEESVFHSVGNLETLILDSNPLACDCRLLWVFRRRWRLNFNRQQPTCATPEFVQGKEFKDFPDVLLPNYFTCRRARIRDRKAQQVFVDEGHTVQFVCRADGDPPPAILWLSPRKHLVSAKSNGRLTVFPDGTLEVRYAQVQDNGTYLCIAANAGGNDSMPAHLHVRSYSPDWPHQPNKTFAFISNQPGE

T2: Sp35 fragment 34-532 (ELISA) (human, UniProt Q96FE5 40-538)
T2 sequence: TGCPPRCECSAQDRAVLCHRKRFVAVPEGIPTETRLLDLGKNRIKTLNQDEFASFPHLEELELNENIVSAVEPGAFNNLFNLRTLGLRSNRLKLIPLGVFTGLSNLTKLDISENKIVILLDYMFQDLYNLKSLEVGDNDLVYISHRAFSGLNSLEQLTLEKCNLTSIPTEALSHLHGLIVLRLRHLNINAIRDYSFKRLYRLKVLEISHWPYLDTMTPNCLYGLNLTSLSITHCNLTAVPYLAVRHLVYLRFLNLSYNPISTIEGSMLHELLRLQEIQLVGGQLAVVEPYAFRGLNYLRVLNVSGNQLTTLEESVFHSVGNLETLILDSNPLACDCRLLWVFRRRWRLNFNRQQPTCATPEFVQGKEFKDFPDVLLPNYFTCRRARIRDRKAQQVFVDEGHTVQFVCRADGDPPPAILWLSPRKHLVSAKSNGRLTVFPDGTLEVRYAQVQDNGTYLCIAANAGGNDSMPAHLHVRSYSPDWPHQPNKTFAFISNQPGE

T3: human Sp35 protein (ELISA, Western, KD; form not stated) (human, UniProt Q96FE5 40-538, limits assumed)
T3 construct: also called huSp35; hLINGO-1
T3 sequence: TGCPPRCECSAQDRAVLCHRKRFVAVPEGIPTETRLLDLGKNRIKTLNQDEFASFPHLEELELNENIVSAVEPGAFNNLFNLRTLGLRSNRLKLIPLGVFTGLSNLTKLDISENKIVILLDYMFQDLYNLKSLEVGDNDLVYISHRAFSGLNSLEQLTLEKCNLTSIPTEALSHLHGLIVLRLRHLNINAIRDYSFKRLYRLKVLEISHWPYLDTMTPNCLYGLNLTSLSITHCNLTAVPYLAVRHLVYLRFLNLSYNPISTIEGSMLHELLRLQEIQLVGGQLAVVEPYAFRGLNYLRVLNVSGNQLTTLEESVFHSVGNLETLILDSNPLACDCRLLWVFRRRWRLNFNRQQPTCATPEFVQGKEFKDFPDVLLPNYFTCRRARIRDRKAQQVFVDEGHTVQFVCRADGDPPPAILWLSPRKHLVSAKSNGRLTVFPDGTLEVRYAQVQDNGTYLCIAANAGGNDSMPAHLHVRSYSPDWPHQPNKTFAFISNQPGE

T4: full-length human Sp35 with an N-terminal HA tag (lysate of transfected COS-1 cells) (human, UniProt Q96FE5 40-620)
T4 construct: used here for all IP columns headed huSp35 / hLINGO-1; also called huSp35 (IP); hLINGO-1 (IP)
T4 sequence: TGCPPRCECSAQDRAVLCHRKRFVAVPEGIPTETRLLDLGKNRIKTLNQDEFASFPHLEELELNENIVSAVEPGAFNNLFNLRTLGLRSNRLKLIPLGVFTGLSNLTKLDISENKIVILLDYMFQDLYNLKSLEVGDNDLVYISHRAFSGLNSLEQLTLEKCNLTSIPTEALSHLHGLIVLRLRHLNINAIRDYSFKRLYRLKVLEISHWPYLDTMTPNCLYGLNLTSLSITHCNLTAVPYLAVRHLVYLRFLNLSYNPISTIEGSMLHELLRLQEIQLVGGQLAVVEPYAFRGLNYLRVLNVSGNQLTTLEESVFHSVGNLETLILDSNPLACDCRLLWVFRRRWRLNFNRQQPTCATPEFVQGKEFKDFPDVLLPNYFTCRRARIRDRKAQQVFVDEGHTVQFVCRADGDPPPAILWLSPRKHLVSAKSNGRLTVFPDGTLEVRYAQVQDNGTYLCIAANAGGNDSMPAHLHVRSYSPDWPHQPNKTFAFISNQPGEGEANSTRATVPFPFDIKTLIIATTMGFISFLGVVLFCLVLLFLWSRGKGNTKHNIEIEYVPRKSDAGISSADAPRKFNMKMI

T5: human Sp35 protein expressed on transfected cells (human, UniProt Q96FE5 40-620)
T5 construct: also called huSp35; hLINGO-1
T5 sequence: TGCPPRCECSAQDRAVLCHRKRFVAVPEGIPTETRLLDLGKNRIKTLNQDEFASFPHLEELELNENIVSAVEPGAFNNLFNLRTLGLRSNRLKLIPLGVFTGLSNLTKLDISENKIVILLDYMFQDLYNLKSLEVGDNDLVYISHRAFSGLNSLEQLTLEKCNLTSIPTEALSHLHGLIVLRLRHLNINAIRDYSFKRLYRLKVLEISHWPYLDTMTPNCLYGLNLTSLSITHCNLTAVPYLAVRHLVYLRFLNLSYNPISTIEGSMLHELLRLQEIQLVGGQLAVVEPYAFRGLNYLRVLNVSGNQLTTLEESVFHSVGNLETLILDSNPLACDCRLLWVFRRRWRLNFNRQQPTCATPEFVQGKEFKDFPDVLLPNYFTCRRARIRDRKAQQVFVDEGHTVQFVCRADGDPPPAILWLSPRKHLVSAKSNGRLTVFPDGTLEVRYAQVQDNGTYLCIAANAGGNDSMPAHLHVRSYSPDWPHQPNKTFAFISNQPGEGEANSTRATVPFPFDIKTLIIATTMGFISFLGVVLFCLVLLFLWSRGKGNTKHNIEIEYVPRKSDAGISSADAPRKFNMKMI


Legend:
[1] = molecular target: T1, Sp35-Fc fusion protein (human Sp35 …); experiment: ELISA
Protocol: (§1) In order to determine which regions of the Sp35 polypeptide were bound by the various hybridoma- and phage display-derived monoclonal antibodies produced in Example 2, an ELISA assay was performed using a panel of truncated Sp35 polypeptides, each fused to the hinge and Fc regions of IgG1 by the methods described in Example 1. […] Ovalbumin and BSA were used as controls. […] The affinity of these latter antibodies for mouse and rat Sp35 was restored to the level seen using human Sp35 when amino acid 419 of the mouse or rat Sp35 is changed from histidine (H) to arginine (R). Arginine is the amino acid at position 419 in human Sp35. […] AP substrate was then developed by 10 mg/ml 4 NPP in 0.1 M Glycine, 1 mM MgCl₂, 1 mM ZnCl₂, pH 10.5, and read at O.D. 405.

[2] = molecular target: T2, Sp35 fragment 34-532 (ELISA); experiment: ELISA
Protocol: as §1

[3] = molecular target: T3, human Sp35 protein (ELISA, Western, KD; …); experiment: ELISA
[4] = molecular target: T4, full-length human Sp35 with an …; experiment: IP
Protocol: To perform the immunoprecipitation, COS-1 cells expressing Sp35, fused to a hemaglutinin (HA) tag on the N-terminus, were produced by transiently transfecting COS-1 cells with a DNA construct which expresses the full-length Sp35 protein with an HA tag. Cells were harvested 48 hr after transfection and were lysed in 1 ml lysis buffer (50 mM HEPES, pH 7.5, 150 mM NaCl, 1.5 mM MgCl₂, 1 mM EGTA, 1% Triton X-100 and 10% glycerol) for 30 min at 4° C. After centrifugation at 14,000×g for 15 min, the supernatants were incubated with ProteinA/G-Sepharose beads (Santa Cruz) at 4° C. for 1 hr, and then incubated at 4° C. for 1 hr with either the 1A7 or the 2F3 anti-Sp35 murine monoclonal antibodies. The beads were washed 3 times with lysis buffer, boiled in Laemmli sample buffer, subjected to 4-20% SDS-PAGE, and analyzed by Western blotting using an antibody which recognizes the HA tag. As shown on the SDS-PAGE gel, monoclonal antibodies 1A7 and 2F3, immunoprecipitated human and murine Sp35 (FIG. 1). […] Similarly, monoclonal antibodies 1G7, 2B10, 2F3, 3P4C2.2D2, 3P4C8.2G9, Li01, Li03, Li05, Li06, Li07, Li08, Li11, Li12, 7P1D5.1G9 and 3B5.2 immunoprecipitate human or mouse or human and mouse Sp35 (See Table 3B and 3C). Additionally, Li08 immunoprecipitates AP-Sp35 and monoclonal antibodies 1B6.4 and 3E3.1 immunoprecipitate endogenous Sp35 (See Table 3B).

[5] = molecular target: T5, human Sp35 protein expressed on …; experiment: FACS

Binder | binding result [1] | binding result [2] | binding result [3] | binding result [4] | binding result [5]
3P1D10.2C3 (antibody, mouse IgG1, V domains shown, murine IgG1) VH: QVQLQQSGAELARPGASVKLSCRASGYTFTSSWTQWVKQRPGQGLEWIGAIYPGDGDTRYTQKFKGKATLTADKSSSTAYMQLSSLASEDSAVYYCARHNSYGMDYWGQGTSVTVSS VL: DIVMTQSPSSLTVTAGEKVTMSCKSSQSLLNSGNQKNYLTWYQQKPGQPPKLLIYWASTRESGVPDRFTGSGSGTDFTLTINSVQAEDLAVYYCQNDYSYPLFTFGSGTKLEIR | binds | binds | binds | binds | –
3P1E11.3B7 (antibody, mouse IgG1, V domains shown, murine IgG1) VH: QVQLQQSGAELARPGASVKLSCRASGYTFTSSWTQWVKQRPGQGLEWIGAIYPGDGDTRYTQKFKGKATLTADKSSSTAYMQLSSLASEDSAVYYCARHNSYGMDYWGQGTSVTVSS VL: DIVMTQSPSSLTVTAGEKVTMSCKSSQSLLNSGNQKSYLTWYQQKPGQPPKLLIYWASTRESGVPDRFTGSGSGTDFTLTINSVQAEDLAVYYCQNDYSYPLFTFGSGTKLEIR | binds | binds | binds | binds | –

Continued, values first:

binding result [1] | binding result [2] | binding result [3] | binding result [4] | binding result [5] | Binder
– | – | binds | – | – | 79-G02 (Dli32) Fab (Fab, V domains shown, human) VH: EVQLLESGGGLVQPGGSLRLSCAASGFTFSAYMMQWVRQAPGKGLEWVSSISPSGGNTKYADSVKGRFTISRDNSKNTLYLQMNSLRAEDTAVYYCARGDYGYWFDPWGQGTLVTVSS VL: DIQMTQSPDSLSASVGDRVTITCQASQDISYYLNWYQQKPGMAPKLLIYDAFILEGGAPSRFSGSGSGTDFSFTISNLQPEDIATYFCQQSDQLPVTFGQGTKVEIR
– | – | binds | binds | binds | 30-B01 (Li11) Fab (Fab, V domains shown, human, kappa; also called Dli11; Li011) VH: EVQLLESGGGLVQPGGSLRLSCAASGFTFSSYAMYWVRQAPGKGLEWVSSISTSGGYTGYADSVKGRFTISRDNSKNTLYLQMNSLRAEDTAVYYCARDTSDNDYYYMDVWGKGTTVTVSS VL: DIQMTQSPSSVSAPIGDRVTITCRASQEIANYLAWYQQKPGKAPKLLIYDTYTLQTDVPPRFSGSGSGTDFTLTISSLQPEDTATYFCQQADIFPLSFGGGTKVEIK
